The numbers were not newly measured in PMC5067215, which cites them from elsewhere.

The target in this series is CD74 (Homo sapiens) (UniProt P04233).
Chain of UniProt P04233 (P04233 73-296): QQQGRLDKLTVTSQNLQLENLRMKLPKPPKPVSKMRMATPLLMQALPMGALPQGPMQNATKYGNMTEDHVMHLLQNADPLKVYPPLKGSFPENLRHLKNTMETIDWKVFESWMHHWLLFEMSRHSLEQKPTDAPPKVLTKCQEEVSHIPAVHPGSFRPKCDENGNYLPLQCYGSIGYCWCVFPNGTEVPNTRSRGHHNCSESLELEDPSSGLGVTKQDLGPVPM

Usually Kd stands for the concentration at which binding is half-saturated. Consider D-DT (from UniProt P30046), for which the Kd is 5.42 nM.
